Experimental findings from US20230250154A1 are described below.

This experiment deals with Protease Mixtures. Briefly: cell-based or functional assay.

B1: Variant A2M, bait region SEQ ID NO 136, P01023 24-1474 (protein)
chain: SVSGKPQYMVLVPSLLHTETTEKGCVLLSYLNETVTVSASLESVRGNRSLFTDLEAENDVLHCVAFAVPKSSSNEEVMFLTVQVKGPTQEFKKRTTVMVKNEDSLVFVQTDKSIYKPGQTVKFRVVSMDENFHPLNELIPLVYIQDPKGNRIAQWQSFQLEGGLKQFSFPLSSEPFQGSYKVVVQKKSGGRTEHPFTVEEFVLPKFEVQVTVPKIITILEEEMNVSVCGLYTYGKPVPGHVTVSICRKYSDASDCHGEDSQAFCEKFSGQLNSHGCFYQQVKTKVFQLKRKEYEMKLHTEAQIQEEGTVVELTGRQSSEITRTITKLSFVKVDSHFRQGIPFFGQVRLVDGKGVPIPNKVIFIRGNEANYYSNATTDEHGLVQFSINTTNVMGTSLTVRVNYKDRSPCYGYQWVSEEHEEAHHTAYLVFSPSKSFVHLEPMSHELPCGHTQTVQAHYILNGGTLLGLKKLSFYYLIMAKGGIVRTGTHGLLVKQEDMKGHFSISIPVKSDIAPVARLLIYAVLPTGDVIGDSAKYDVENCLANKVDLSFSPSQSLPASHAHLRVTAAPQSVCALRAVDQSVLLMKPDAELSASSVYNLLPEKDLTGFPGPLNDQDDEDCINRHNVYINGITYTPVSSTNEKDMYSFLEDMGLKAFTNSKIRKPKMCPQLEQYEMHGPKEEEGLGSIPENFFGVSELEGRGSEGEGEGEGVEEPHTKLRKYFPETWIWDLVVVNSAGVAEVGVTVPDTITEWKAGAFCLSEDAGLGISSTASLRAFQPFFVELTMPYSVIRGEAFTLKATVLNYLPKCIRVSVQLEASPAFLAVPVEKEQAPHCICANGRQTVSWAVTPKSLGNVNFTVSAEALESQELCGTEVPSVPEHGRKDTVIKPLLVEPEGLEKETTFNSLLCPSGGEVSEELSLKLPPNVVEESARASVSVLGDILGSAMQNTQNLLQMPYGCGEQNMVLFAPNIYVLDYLNETQQLTPEIKSKAIGYLNTGYQRQLNYKHYDGSYSTFGERYGRNQGNTWLTAFVLKTFAQARAYIFIDEAHITQALIWLSQRQKDNGCFRSSGSLLNNAIKGGVEDEVTLSAYITIALLEIPLTVTHPVVRNALFCLESAWKTAQEGDHGSHVYTKALLAYAFALAGNQDKRKEVLKSLNEEAVKKDNSVHWERPQKPKAPVGHFYEPQAPSAEVEMTSYVLLAYLTAQPAPTSEDLTSATNIVKWITKQQNAQGGFSSTQDTVVALHALSKYGAATFTRTGKAAQVTIQSSGTFSSKFQVDNNNRLLLQQVSLPELPGEYSMKVTGEGCVYLQTSLKYNILPEKEEFPFALGVQTLPQTCDEPKAHTSFQISLSVSYTGSRSASNMAIVDVKMVSGFIPLKPTVKMLERSNHVSRTEVSSNHVLIYLDKVSNQTLSLFFTVLQDVPVRDLKPAIVKVYDYYETDEFAIAEYNAPCSKDLGNADYKDDDDKGASHHHHHH
With B1, the Protease Inhibition (% of WT); Protease Mixtures, Collagen Substrate was 170 % of WT and the Protease Inhibition (% of WT); Protease Mixtures, IGD Substrate is 215 % of WT.
